Patent US20240076398A1 (VISTERRA, published 2024)
No end group written: not given here.

T1: biotinylated N-terminal peptide of C5aR1 with tyrosine sulfation (human, tyrosine sulfation (the sulfated tyrosines of C5aR1 are Y11 and Y14); biotinylated)
T1 construct: also called Sulfated N-terminal
T1 peptide: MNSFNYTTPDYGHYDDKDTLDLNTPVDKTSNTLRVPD

T2: biotinylated N-terminal peptide of C5aR1 without tyrosine sulfation (human, biotinylated)
T2 construct: also called Non-sulfated N-terminal
T2 peptide: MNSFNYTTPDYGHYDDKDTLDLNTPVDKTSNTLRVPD

T3: biotinylated cyclic ECL2 peptide of C5aR1 (human, also: biotinylated, position not given here, cyclic, way of cyclisation not given here)
T3 peptide: RVVREEYFPPKVLC


Assays:
Assay in all cases: BLI, peptide on streptavidin sensor
[1] = biological target: T1, biotinylated N-terminal peptide of …
Excerpt: (§1) The epitope mapping was undertaken, using biolayer interferometry, on a series of exemplary anti-C5aR1 antibodies generated as described in Example 1. Briefly, for each antibody, biotinylated peptides representing ECL2, the N-terminus with tyrosine sulfation, and the N-terminus without tyrosine sulfation, were immobilized in a streptavidin biosensor. Subsequently, the biosensor was exposed to […] of antibody to detect antibody binding to the immobilized peptide. The results of the epitope mapping study are shown in Table 4 (“+” indicates binding to the listed peptide; “−” indicates lack of binding to the listed peptide).

[2] = biological target: T2, biotinylated N-terminal peptide of …
Excerpt: as §1

[3] = biological target: T3, biotinylated cyclic ECL2 peptide of …
Excerpt: as §1

Row | Binder | binding result [1] | binding result [2] | binding result [3]
1 | antibody 343 (antibody, V domains shown) VH: QVQLQQSGAELVKPGASVKLSCKASGYTFTEYTIHWVNQRSGQGLEWIGWFYPGSGSIKYNEKFKDKATLTADKSSHTVYMELSRLTSEDSAVYFCARHGNYYDGSWFAYWGQGTLVTVSA VL: DVQITQSPSYLAASPGETITINCRASKSISKYLAWYQEKPGKTNKLLIYSGSTLQSGIPSRFSGSGSGTDFTLTISSLEPEDFAMYYCQQHDEYPWTFGGGTKLEIK | no binding (tested: 10 gg/mL (so in the source)) | no binding (tested: 10 gg/mL (so in the source)) | 
2 | Clone_184 (antibody, V domains shown) VH: QVQLQQSGAELVKPGASVKISCKASGYAFSRYWMNWVKQRPGKGLEWIGQIYPGDGDTKYNGKFKGKATLTADKSSSTAYMQLNSLTSEDSAVYFCTRSLGVWGTGTTVTVSS VL: not shown |  |  | no binding (tested: 10 gg/mL (so in the source))
3 | Clone_453 (antibody, V domains shown) VH: QVQLKQSGPGQVAPSQSLSITCTVSGFSLINSAVHWVRQSPGKGLEWLGVIWSDGSTDYNTAFISRLSISRDNSKSQVFFKMRSLQVDDTAVYYCARNGRLGNAMDYWGQGTSVTVSS VL: DIVMTQSPSSLAVSVGEKVTMSCKSSQSLFSSRTRKNYLAWYQQKPGQSPKLLIYWASTRESGVPYRFTGSGSGTDFTLTISSVQTEDLAVYYCKQSYNLLTFGAGTKLEL | no binding (tested: 10 gg/mL (so in the source)) | no binding (tested: 10 gg/mL (so in the source)) | 
4 | Clone_402 (antibody, V domains shown) VH: QIQLVQSGPELKKPGETVKISCKASGYTFTTFGMSWVKQAPGKGLKWMGWINTNSGMPTYTDDFRGRFAFSLETSASTAYLQISSLKNEDTATYFCARKSLFYWGQGTTLTVSS VL: DVVMTQSPLTLSVTIGQPASISCRSSRSLLDSDGKTKLHWLLQRPGQSPKSLIYLVSKLDSGVPNRFTGGGSGTDFTLKINRVEAEDLGVYYCWQGTHFPWTFGVGTKLEIK |  |  | no binding (tested: 10 gg/mL (so in the source))
5 | Clone_66 (antibody, V domains shown, also called Ab66; mab 66) VH: QVQLQQSDAELVKPGASVKISCKASGYTFIDHAIHWVKQRPEQGLEWIGYISPGNGEIKYNEKFKAKATLTADKSSSAAYMQLNSLTSADSAVYFCKRALFYYTGKYQPMDYWGQGTTVTDSS VL: DIVMTQSQKFMSTTAGDRVSITCKASQNVGSAVVWYQQKPGRSPKLLIYSSSIRYTGVPDRFTGSGSGTDFTLTINSVQSEDLADYFCQQYNSFPLTFGAGTKLEIK |  |  | no binding (tested: 10 gg/mL (so in the source))
6 | Clone_336_V2-1 (antibody, V domains shown) VH: QVQLKQSGPGLVQSSQSLSITCTVSGFSLISYGVHWVRQSPGKGLEWLGVIWSGGSTDYNAAFKSRLSITKDNSKSQVFFKMNSLQADDTAIYYCAKNSQLGNAMDYWGQGTTVTVSS VL: DIVMSQSPSSLAVSAGEKVTMSCKSSQSLLSSRTRKNYLAWYQQKPGQSPKLLIYWASTRESGVPDRFTGSGSGTDFTLTISSVQAEDLALYFCNQSYDLLTFGAGTKLEIK | no binding (tested: 10 gg/mL (so in the source)) | no binding (tested: 10 gg/mL (so in the source)) | 
7 | antibody 317 (antibody, V domains shown) VH: QVQLQQPGAELVMPGASVKLSCKASGYTFTSYWLHWVRQRPGQGLEWIGEIDPSDGYSNHNQKFKGKATLTVDKSSSTAYMQLSSLTSEDSAVYYCATEGFWGQGTTVTVSS VL: DIVMTQSPSSLSVSAGEKVTMSCKSSQSLLKSGNQKNYLAWHQQKPGQPPKLLIYGASTRESGVPDRFTGSGSGTDFTLTISSVQAEDLAVYYCQNDHSHPYTFGGGTKLEIK | no binding (tested: 10 gg/mL (so in the source)) | no binding (tested: 10 gg/mL (so in the source)) | 
8 | Clone_588 (antibody, V domains shown) VH: DVQLQESGPGLVKPSQSLSLTCTVTGYSITSDYAWNWIRQFPGNKLEWMGYISYSGSIRYNPSLKSRISITRDTSKNQFFLQLNSVTTEDTATYYCAITTGGYFDYWGQGTTLTVSS VL: DIQMTQSTSSLSASLGDRVTISCRASQDISNYLNWYQQTPDGTVKLLIYQISRLHSGVPSRFSGSGSGTDYSLTISNLEEEDIANYFCQQGNSLPPTFGGGTKVEIK | no binding (tested: 10 gg/mL (so in the source)) | no binding (tested: 10 gg/mL (so in the source)) | 
9 | Clone_79 (antibody, V domains shown, also called antibody 79) VH: QVQLKESGPGLVAPSQSLSITCTVSGFSLTSYAISWVRQPPGKGLEWLGVIWTGGGTKYNSALKSRLSISKDNSKSHVFLKMNSLQSDDTARYYCARDGDYVYYAMAYWGQGTTVTVSS VL: DVVMTQTPLSLPVSLGDQASISCRSSQSLVHSNGNTYLHWYLQKPGQSPKLLIYKVSNRFSGVPDRFSGSGSGTDFKLKISRVEAEDLGVYFCSQSTHVPPTFGGGTKLEIK | no binding (tested: 10 gg/mL (so in the source)) | no binding (tested: 10 gg/mL (so in the source)) | 
10 | Clone_429 (antibody, V domains shown) VH: QVQLQQSGAELAKPGASVKLSCKASGYTFSSYWIHWVKQRPGQGLEWIGYINPRGDYTKYNQKFKDKATLTADKSSSTAFMQLSSLTYEDSAVYYCVRVTGSEGPYYFDYWGQGTTLTVSS VL: DVVMTQTPLSLPVSLGDQASISCRSSQSLVHSNGNTYLQWYLQKPGQSPKLLIYKVSNRFSGVPDRFSGSGSGTEFTLKIRRVEAEDLGVFLCSQSTLVPLTFGAGTKLELK | no binding (tested: 10 gg/mL (so in the source)) | no binding (tested: 10 gg/mL (so in the source)) | 
11 | Clone_584 (antibody, V domains shown) VH: DVQLQESGPDLVKPSQSLSLTCTVTGYSITSGYSWHWIRQSPGNKLEWLAYIHNSGSTNYNPSLKSRISITRDTSKNQFFLKLNSVTTEDTATYYCARSIGDYWGQGTTLAVSS VL: DVVMTQTPLSLPVSLGDRASISCRSGQSLVHSNGNTYLHWYLQRPGRSPNLLIYKVSNRFSGVPDRFSGSGSGTDFTLKISRVEAEDLGVYFCSQSTHVPWTFGGGTKLEIK | no binding (tested: 10 gg/mL (so in the source)) | no binding (tested: 10 gg/mL (so in the source)) | 
12 | Clone_329 (antibody, V domains shown, also called Ab329; mAb329) VH: QVQLQQSGAELTKPGASVKLSCKASGYTFTNYWMHWVKQRPGQGLEWIGYLNPSSGYTKYNQKFKDKATLTADKSSSTAYMQLNSLTYEDSAVYYCTRSGGDNYGNPYYFDRWGQGTTVTVSS VL: DVVMTQTPLSLTVSLGDQASISCRSSQSLVHSNGNTYLHWYLQKPGQSPKFLIYKVSNRFSGVPDRFSGSGSGTDFRLKISRVEAEDLGVYFCSQSTLVPLTFGAGTKLEIK | no binding (tested: 10 gg/mL (so in the source)) | no binding (tested: 10 gg/mL (so in the source)) | 
13 | Clone_11_V2 (antibody, V domains shown, also called Ab11v2) VH: QVQLQQSGPELVKPGASVKISCKASGYSFSSSWMNWVKQRPGKGLEWIGRISPGDGDTRYSGKFKGKATLTADKSSSTAYMQVTSLTSEDSAIYFCVRFLITSTRYVMDYWGQGTTVTVSS VL: DVVMTQTPLSLPVSLGDQASISCRSSQSLVHSNGNTYLHWYLQKPGQSPKLLIYKVSNRFSGVPDRFSGSGSGTDFTLKISRVEAEDLGVYFCSQSTLVPPTFGGGTKLEIK | no binding (tested: 10 gg/mL (so in the source)) | no binding (tested: 10 gg/mL (so in the source)) | 
14 | Clone_583 (antibody, V domains shown, also called Ab583; mAb583) VH: EVQLVESGGGLVKPGGSLKLSCAASGFTFNAYAMSWVRQTPEKRLEWVASISTGGNTYCPDSVKDRFTVSRDNVRNILYLQMSSLRSEDTAMYYCTRGYQRFSGFAYWGQGTLVTVS VL: DVVMTQTPLSPPVSLGYQASISCRSSQSLVHSNGNTYLNWYLQKPGQSPKLLIYKVSNRLSGVPDRFSGSGSGTDFTLKISRVETEDLGVYFCSQSTHVPYTFGGGTKLEIK |  |  | no binding (tested: 10 gg/mL (so in the source))
15 | Clone_511 (antibody, V domains shown) VH: QVQLQQSGAELAKPGASVKLSCKTSGYTFTNYWMHWIKQRPGLGLEWIGYINPSGDYTKHNQKFKDKATLTADRSSSTAYMQLSSLTYEDSAVYYCARVPLSYGSGNGPYYFDYWGQGTTLTVSS VL: DVVMTQTPLSLPVSLGDHASISCRSSQSLVHSNGNIYLHWYLQRPGQSPKLLIHKVSNRFSGVPDRFSGSGSGTDFTLKISRVEAEDVGIYFCSQSTLVPLTFGSGTKLELK | no binding (tested: 10 gg/mL (so in the source)) | no binding (tested: 10 gg/mL (so in the source)) | 
16 | Clone_518 (antibody, V domains shown) VH: QVQLQQSGAELAKPGASVKLSCKTSGYTFTNYWMHWIKQRPGLGLEWIGYINPSGDYTKHNQKFKDKATLTADRSSSTAYMQLSSLTYEDSAVYYCARVPLSYGSGNGPYYFDYWGQGTTLTVSS VL: DVVMTQTPLSLPVSLGDHASISCRSSQSLVHSNGNTYLHWYLQRPGQSPKLLIHKVSNRFSGVPDRFSGSGSGTDFTLKISRVEAEDVGIYFCSQSTLVPLTFGSGTKLELK | no binding (tested: 10 gg/mL (so in the source)) | no binding (tested: 10 gg/mL (so in the source)) | 
